Patent US20240115745A1 (3B PHARMACEUTICALS, published 2024)
*1 amine or outer side, *2 acyl side, *3 side chain or, on linkers, in order; H or OH if unused. Bridges are numbered along the chain shown (N, C = ends). Primed or numbered codes have the meaning given here. [ ]: non-standard residue; d: D form. The star is where a group is joined. mli = maleimide cyclization element: 3,4-maleimide inserted symmetrically, forming a vinyl thioether with each Cys sulfur; mli(Me)″ = N-methyl maleimide cyclization element, vinyl thioethers with both Cys, CN1C(=O)C([*:1])=C([*:2])C1=O; mli(DOTA-Eda) = 3,4-N-(DOTA-aminoethyl)-maleimide bridging two Cys S atoms as vinyl thioethers; Ttds = 1,13-diamino-4,7,10-trioxatridecan-succinamic acid, NCCCOCCOCCOCCCNC(=O)CCC(=O)*; mli(DOTA-Ttd) = 3,4-N-(DOTA-Ttd)-maleimide bridging two Cys S atoms as vinyl thioethers; mli(NODAGA-Ttd) = mli with NODAGA attached to the maleimide nitrogen via a Ttd linker; mli(N4Ac-Ttd) = mli with N4Ac attached to the maleimide nitrogen via a Ttd linker; mli(Me) = N-methyl maleimide cyclization element, CN1C(=O)C([*:1])=C([*:2])C1=O; N4Ac = 6-carboxy-1,4,8,11-tetraazaundecane, NCCNCC(CNCCN)C(=O)*; DOTA = O=C(O)CN1CCN(CC(=O)O)CCN(CC(=O)*)CCN(CC(=O)O)CC1; NODAGA = O=C(O)CN1CCN(CC(=O)O)CCN(C(CCC(=O)*)C(=O)O)CC1; O2Oc = 3,6-dioxaoctanoic acid; Nle = CCCC[C@H](N)C(=O)O; Hexanoyl = CCCCCC(=O)*

Legend:
[1] = target: T1, fibroblast activation protein (FAP) on FAP-expressing human WI-38 fibroblasts (human, UniProt Q12884 1-760); assay: competitive FACS on WI-38 cells vs 3 nM Cy5-labeled probe; A = pIC50 >7.0
T1 construct: Endogenous FAP on WI-38 cells (ECACC) in the FACS assay; also called human FAP
Protocol: FAP-expressing human WI-38 fibroblasts (ECACC) were cultured in EMEM including 15% fetal bovine serum, 2 mM L-Glutamine and 1% Non-essential amino acids. Cells were detached with Accutase (Biolegend, #BLD-423201) and washed in FACS buffer (PBS including 1% FBS). Cells were diluted in FACS buffer to a final concentration of 100.000 cells per ml and 200 μl of the cell suspension are transferred to a u-shaped non-binding 96-well plate (Greiner). […] Cell were washed twice with FACS buffer and resuspended in 200 μl FACS buffer. Cells were analyzed in an Attune NxT flow cytometer. Median fluorescence intensities (Cy5 channel) was calculated by Attune NxT software and plotted against peptide concentrations. Four parameter logistic (4PL) curve fitting and pIC50 calculations were performed using ActivityBase software.

[2] = target: Recombinant human FAP (R&D systems, #3715-SE) (human, UniProt Q12884 26-760); assay: cell-based or functional assay

Row | Binder | pIC50 Category (FACS) [1] [pIC50] | pIC50 Category (Activity), FRET-based FAP protease activity assay [2] [pIC50]
1 | Hexanoyl-CPPTQFCD-NH2 (linker 1-7 via mli(DOTA-Ttd)) [compound Hex-[Cys(mli(DOTA-Ttd))-Pro-Pro-Thr-Gln-Phe-Cys]-Asp-NH2 (2017)] | > 7 | > 7
2 | Hexanoyl-CPPTQFCDK(NODAGA)-NH2 (linker 1-7 via mli) [compound Hex-[Cys(mli)-Pro-Pro-Thr-Gln-Phe-Cys]-Asp-Lys(NODAGA)-NH2 (2023)] | > 7 | > 7
3 | Hexanoyl-CPPTQFCDK(DOTA)-NH2 (linker 1-7 via mli(Me); SMILES CCCCCC(=O)N[C@H]1CSC2=C(SC[C@@H](C(=O)N[C@@H](CC(=O)O)C(=O)N[C@@H](CCCCNC(=O)CN3CCN(CC(=O)O)CCN(CC(=O)O)CCN(CC(=O)O)CC3)C(N)=O)NC(=O)[C@H](Cc3ccccc3)NC(=O)[C@H](CCC(N)=O)NC(=O)[C@H]([C@@H](C)O)NC(=O)[C@@H]3CCCN3C(=O)[C@@H]3CCCN3C1=O)C(=O)N(C)C2=O) [compound Hex-[Cys(mli(Me))-Pro-Pro-Thr-Gln-Phe-Cys]-Asp-Lys(DOTA)-NH2 (2015)] | > 7 | > 7
4 | Hexanoyl-CPPTQFCD-NH2 (linker 1-7 via mli(NODAGA-Ttd)) [compound Hex-[Cys(mli(NODAGA-Ttd))-Pro-Pro-Thr-Gln-Phe-Cys]-Asp-NH2 (2025)] | > 7 | > 7
5 | {DOTA-Ttds}-[Nle]CPPTQFCD-NH2 (linker 2-8 via mli(Me)″) [compound DOTA-Ttds-Nle-[Cys(mli(Me))-Pro-Pro-Thr-Gln-Phe-Cys]-Asp-NH2 (2016)] | > 7 | > 7
6 | {DOTA-Ttds}-[Nle]CPPTQFCD-NH2 (disulfide 2-8) [compound DOTA-Ttds-Nle-[Cys-Pro-Pro-Thr-Gln-Phe-Cys]-Asp-NH2 (1008)] | > 7 | > 7
7 | Hexanoyl-CPPTQFCD-NH2 (linker 1-7 via mli(N4Ac-Ttd)) [compound Hex-[Cys(mli(N4Ac-Ttd))-Pro-Pro-Thr-Gln-Phe-Cys]-Asp-NH2 (2026)] | > 7 | > 7
8 | Hexanoyl-CPPTQFCDK(N4Ac)-NH2 (linker 1-7 via mli) [compound Hex-[Cys(mli)-Pro-Pro-Thr-Gln-Phe-Cys]-Asp-Lys(N4Ac)-NH2 (2024)] | > 7 | > 7
9 | {DOTA-Ttds}-[Nle]CPPTEFCDHFRD-NH2 (disulfide 2-8, By the running order it belongs to 1006) [compound DOTA-Ttds-Nle-[Cys-Pro-Pro-Thr-Glu-Phe-Cys]-Asp-His-Phe-Arg-Asp-NH2 (1006)] | > 7 | > 7
10 | {DOTA-O2Oc}-[Nle]CPPTEFCDHFRD-NH2 (disulfide 2-8, By the running order it belongs to 1005) [compound DOTA-O2Oc-Nle-[Cys-Pro-Pro-Thr-Glu-Phe-Cys]-Asp-His-Phe-Arg-Asp-NH2 (1005)] | > 7 | > 7
11 | Hexanoyl-CPPTQFCD-NH2 (linker 1-7 via mli(DOTA-Eda)) [compound Hex-[Cys(mli(DOTA-Eda))-Pro-Pro-Thr-Gln-Phe-Cys]-Asp-NH2 (2018)] | > 7 | > 7
